Experiment: label from the status in PepcDB records

Sequence	protein production
MASKKPDKTYEEMVKEVERLKLENKTLKQKVKSSGAVSSDDSILTAAKRESIIVSSSRALGAVAMRKIEAKVRSRAAKAVTEQELTSLLQSLTLRVDVSMEELEHHHHHH	not failed
NHSHSLAVIGSRNATQYTSQSLNYLFPSFRQLNMAIVSGLARGADSVAHQTALKYLLPTIGVLGFGHCYHYPKATLNLRTKVERNGLVISEYPPFSPISKHKFPERNRLISGLSRGVLITEAEERSGSQITIDCALEQNRNVYVLPGSMFNKMTKGNLRRINEGAQVVIDESSILYDYLF	failed
MAIATARAGGKETGTEQMYILQVTNSRSTMSKMSNVKEVNASTAFSMIKKGALLVDVRETREINRKAFGVSDYLSVPMSRFQSSLHEIPAERKVILACHSGNRSSIASRILVNSGHRKVHNLQHGIISWEREGLPVRKKESPSPLTMLFQMFRKEA	failed
MKLTGQAIDGFLRKPDPKIRCVLVYGPDEGLVRERLEQLARTVVADPKDPFRITDLSGDDLRADPARLADEAAALAFGGGRRLVRLRQMTDQHAPRLKAFVEAPVGEALVLVQGGDLTARSALRKLFEGASAAAALPCYADEGRSLETLVRATLAEARLAAAPEVIDYLVANLGGDRGVSRSELAKLVTYCGKATSVSLDDALACVGDSAQIGLDMLTNAVAEGDSATALRALDRLGQEGMATVALLRGLTRHFTRLHLVAGLIAGGTSVDQALAALKPPVMFKLAPRFRSQVQRWSAERLAQALDLLLDAEIDAKSSGLPERALVERLLLRLARGAKTASRLEHHHHHH	failed
MIRTIQDLLNERVAIGKIVNTHGLKGEVKFFPYTNSEEIVKNLSSVVLYNSEKKAFYNLTVESVRRMNKLFLIRFKSIDTIEAAERIKGCEVFIKYEELPKLSEDEYYFYEILDCDVFYESGENVGKVVDIIETGSNDVLVVRKKKKETLIPMTKDCIVEIDKGAKKIIAKEMEWILEHHHHHH	failed
MRVSVVIPARNEEAYLPSALEAVLAQTLPPFEVIVVDNASTDRTREVAEAFGARVVFCGRKGVAYARQAGLLAARGEWVAMTDADSLPTPRWLERLAHKAPGAVAVYGPLRFYGVSPLEAAFSEWGYRAFLNLMALLGRPNLAGANMMVLKEAALKVGGFPEVEAREDVLLGWRLKALGPVRYARDALVLTSARRLQGGWGRFLLRQARNLLGDPRGYFGEAGERER	failed
MIISLIAALAADRVIGMENAMPWHLPADLAWFKRNTLNKPVIMGRKTFESIGRPLPGRLNIVISSQPGTDERVTWAASIEEALAFAGNAEEVMVMGGGRVYKQFLDRANRMYLTHIDAEVGGDTHFPDYEPDEWESVFSEFHDADEANSHSYCFEILERR	not failed
MHLAYPAVLSALLFCTGLYGVLARRNAILVLMSVELMLNAVNLNLVAFDVWLSRAAEETLHSGQALTLFTIAIAAAEIGIGLAIVLAVHRNRGTSDIDKLRDTAEGHEPDGPDTDTPATGTAAEKAEATA	failed
SGAAAAEADRTLFVGNLETKVTEELLFELFHQAGPVIKVKIPKDKDGKPKQFAFVNFKHEVSVPYAMNLLNGIRLYGRPIKIQFRSGSSHAPQDVSLSYPQHHVGNSSPTSTSPSRYERTMDNMTSSAQIIQRSFSSPENFQRQAVMNSALRQMSYGGKFGSSPLDQSGFSPSVQSHSHSFNQSSSSQWRQGTPSSQRKVRMNSYPYLADRHYSREQRYTDHGSDHHYRGKRDDFFYEDRNHDDWSHDYDNRRDSSRDGKWRSSRH	not failed
MPVTETIPLHETARERYLNYALSVITSRALPDIRDGLKPVQRRILFAMFDSLNLYPSKRHRKSATVVGETMGKYHPHGDKAIYDAMVRMAQSFSLRAPLVDGHGNFGSLDGDSAAAMRYTEAKLQPLAMEMLEGLRDETVDYRDNFDGSLEEPVVLPARVPNLLVNGASGIAVGMATNIPPHNLGEVVDAALHMIEEPEVDTSTLVRDHIQGPDFPTGGRILNTQDELAEIYETGSGTIEMRGAYRTKGKTRAIIESVPYGVDKSKIVEEIADHIAEENVPQLSNVRDESTDDVRIVLELKRGSDTEAAMAYLFKHTKLQKRFHVNLTCLVPTESTDVKAPKQVDLRTILRYFLDFRLDVVTRRLQNELAELEARIHILEGFETIFDALDEAIEIIRASKNKADAAQRLMHRFQLDEEQTDAILETQLYKLSQMEIEAIRDELGEKRARAEGIRRLLDDEDARWGIVKDELQDIRDEYTDERRSTLVGPGADMEYTEEDYIVDEDVHVIVTRDGWVKRQGTYSDLDAIRTRDGDEVGWALAGSTRATVGFFTNYGTCYTTRITEIPSTTGYGDPVQKLFSFDDGEHVVGVVSFDDRALPDPVPAEPSEQGELFDPDDPDAPDQPYVVAISKGGQATRFTLDGYLEPSISTGRKYMRLEDGDEVARVHLARGDENICLASHDGRALVFPVHQVSVYKGPAKGVRAIRLEDNDRVLDFALSTRARDGLTVETNNGREEIVRTTKFDATNRGAKGTLVIKRGYFAEVFPEPVEVPLHEAA	failed
MLIEIPNVFSKQEVSHLREQLDARRWIDGNQTSGAMATTRKRNQQLDKDDPVAVALGQQIMDRLLAHPQFVSAALPLQFYPPLFNRYQGGETFGYHIDNAIRSTPDGMIRTDLSATLFLSEPENYQGGELVIQDTYGQQSIKLSAGSLVLYPSSSLHQVTPVLSGERTAAFMWLQSMVRDEGQRRLLFQLDQSIQSLTAQTAAEQELFNLSGVYHNLLRRWSEL	not failed
AADQVLELVRPFLEELRNISQETAVLGKRQDGQVIYLDVALSHQPIRYHVQVGESRAAHTNSIGKAIFPMLDEKEQKALLAKANWRALTSRTIATREAFLRDMAQTKARGWSSNVGESVEDLAAVALPFQLASEWYAVSIVGPYERMERNWDAHVETLLQTGARLRQAIAVHEGQ	failed
MFTAYKKFWTNYVNFTGRSSRSDYWWAILCNSLIILPFVFTATSIFYSNLIEFIRGSAISTFSGEESVLSVYSIDVIILFIIIVLFSLAILLPNLAISIRRLRDAGFHWSLIFVPIGAALFSFLGLIPFLRAIVSIIVWFALIFYYILLCQPSKPYQAPVQPIAPQQPQQMAPQGQPVQAQVQPQSQTTPQQPQTPPVQQPQAPTNQQ	failed
MSLKITGVNIYLLKSGRLHPVLVEISTDEGITGAGEAGIAYGVGGTAAAGMIKDLSERFLIGKDPSRIEELWSTMYDHSFWAKNGGAIIFAGISAIEQALWDIKGKCLGVPVYELFGGKIRDRVRAYANGWYGAADTPDEFARAVERPLKEGYGALKFYPLAQRVGSALQHVTRRSMSAEAIELAYRRVKAVRDAAGPEIELMVDLSGGLTTDETIRFCRKIGELDICFVEEPCDPFDNGALKVISEQIPLPIAVGERVYTRFGFRKIFELQACGIIQPDIGTAGGLMETKKICAMAEAYNMRVAPHVCGSSLIETATLQLEANITNFMIHEHYPAFKADDGYVEVLENPPSISSGYFEMPNGPGLGAVLIKRNIEPYLWASCTEGHHHHHH	not failed
MLNVIHALFFRELKTRFGKNRYLGYIWVVGEPMSVVLLVTIIGTVIREYHHQVMPEGISIFMFLISGIMPFFMFRSIVTQLMNGIGANLSLFAYKPVKPIHVFIARTLLEFCIYFVIFITVLFFAGWFFRLDVFPVHLLGVLFCIFLLICSAFALGICFAIVWHFVESLRTLLAYFSIVFYWSSGIIFPTWLTPRPLLDIFYYNPLLHIFELLRFNFFENYPLQDEYSYFYAIFWILLVLFIGLFIYYYNRQALTAAKKE	failed
MSDLQKLQRFSTCDISDGLLNVYNIPTGGYFPNLTAISPPQNSSIVGTAYTVLFAPIDDPRPAVNYIDSVPPNSILVLALEPHLQSQFHPFIKITQAMYGGLMSTRAQYLKSNGTVVFGRIRDVDEHRTLNHPVFAYGVGSCAPKAVVKAVGTNVQLKILTSDGVTQTICPGDYIAGDNNGIVRIPVQETDISKLVTYIEKSIEVDLLVSEDIKNGIPAKQAQNDRRSVLKKYI	not failed
MNLFRKCLLILGLASPLYLGLGQTSAHAEAVPPLAPTTCQATNLPQPSTAAIRELTPTGTLRVAINTGNYVLATEADDFGPFGISVDIAHLLAKGLGVPSEFTVVQAAAVSFERVSKNLSDIGFFGVDPWRAESVDYTNPYIQIEGAYIVRQDSPILTLADVDRAGIQIVVGKNSVYNLFLDRNIHHAHLVQAPTSPEVTGFMLAHKFPVGAGIRNQLVADMKRYGGLRILSTSFMIIHQAMATGKGRPQGLSYLQSFISELKKSGCIQELITKYAVDDAVVSP	failed
MDNSGKEAEAMALLAEAERKVKNSQSFFSGLFGGSSKIEEACEIYARAANMFKMAKNWSAAGNAFCQAAQLHLQLQSKHDAATCFVDAGNAFKKADPQEAINCLMRAIEIYTDMGRFTIAAKHHISIAEIYETELVDIEKAIAHYEQSADYYKGEESNSSANKCLLKVAGYAALLEQYQKAIDIYEQVGTNAMDSPLLKYSAKDYFFKAALCHFCIDMLNAKLAVQKYEELFPAFSDSRECKLMKKLLEAHEEQNVDSYTESVKEYDSISRLDQWLTTMLLRIKKTIQGDEEDLR	not failed
DYIEGVIADISDVYDELRLRKQAEVALQASEAELRSLFSAIPDPLCVVTAQGRVIETVAGNPRQLYSSVEEKVGKTLHQIFEEEQADKFMGYIQQVLRTQQVLTVEYSLQIDGRETWFSARIAPIRHE	failed
MTEVNLNIYSPRWGRHETYIVELHKDYMEISMGAVTIKATYSENQDPEWSEETLQDIMNNDSVYPPEITQNLFQHAWLEWRKGALDNDEVTRELELVAQWVNKVTEAKPNSDFWRKYF	not failed
ALLQTPEFVEEFILDRTMNPAVREFGYEELKMIDPTCGSGHFVLGAFRRLVRLGGENQPGKDVHQRVRAALDSVHGVDINPFAVAIARFRLLVAAMAASGVRTLDEASKYEWPVHLAVGDSLIKSGSQQGSLFGESDDDLTDELAEFKYATEDVGEHPEMLRPGRYHVVVGNPPYITVKDKSLNALYRELYPACAGKYALSVPFAQRFFELAKREDAEGSGYGMVGQITANSFMKREFGTKLIEGYFGHAVELTEVIDTSGAYIPGHGTPTVILVGTRRGGDGR	failed
SDNEFPDFDYQTVYFANQYGLRTIELGESEFVDNTLDNQHKMVIKAAWGGGYTNRNNVVINFKVDESLCDNLYFKDTDQPLVPMPASYYTLASDRIAIPKGQIMAGVEVQLTDDFFADEKSISENYVIPLLMTNVQGADSILQGKPVVENPVLTNAGDWSILPQNFVLYAVKYVNPWHGEYLRRGIDHATVAGTSKDIIRHEQFVENDEVVNISTKSMKDNLLTLKTKDESGKDISYTVRLSFAEDGSCTVHSGSQNVVVSGSGKFVSKGEKNSLGGKDRNAIYLDYTVNLTDNNIQLATKDTLVLRTRNVYGGKSLEVVRK	not failed
MEIFLWKDNRFHHQLRLLWHMCRGRNGTACLLLMKHFAAVRYLKLCTNHLWEVAGNMMNSNMNRRNVQYRQDRQPMPQPAVQPQCQPSCQTCPGTCNDGSMMTGNNGNPQMMPAGGPGPERRPMPVPDHQTLMNEIYQLGFAIVETVLYLDTHPSDADALNYYNQIKRRYSHVMEMYSREYGPLLNTNVMNDNYWSWVATPMPWEVEGC	failed
MRTKILLLTFTLLSSFSVLSQGNDLEQGMYELNRGEFKAAIEQFRPLVNEGYAPAQYQMALVYLHGYSVRKDSMKALELFELSAAQNYPDAQFELALIYSDGKLVKQNLKKAFELTHKAANKDLPSAQFNLAVMYANGTGIKQDDFKASRWYQRAANQNYALAQFNLALLYSEGKGVEKSTELSYVWNTIASWNGYPNAEKSRLMDERDLSKLKIEKSIEKANDIYQKIRDQQEMKAKMAEKQNFY	failed
MLEAPLLSICIPAYNRPNWLQRGLESIAVGEGSDIEIVITDDSDTDQGQAIASEVLKNWSGSWCYEHHQQPLGMAQNWNRAIQWATGQYVMVLHDDDFFLPQGLGLLVNKLRQLGSSSPVLLFGVRVVDAQERVVKRQGFRQDKLLPPHDALIRLFSDSSFVRFPAMVIRRDLFTEVGYFNPDWREPCDLEMWMRLFARYGVYCCREATVAYRVHGQALTMGSFHGETVNILLRLFGELEKLNILTTRDIEFCKGLFFHQYILAGAWRQLRRRRWREFKQVMGLFDLPELKSLSCPVKWRFLRGLFSLTLEHHHHHH	failed

From a protein production outcome set (Wang et al. 2014)
